Measurements from patent US20240376225A1 (CHILDREN S MEDICAL CENTER, published 2024).
Like-named read-outs stand apart in the source and are kept apart here.

T1: human CD21 on Raji B cells or primary B cells (human, UniProt P20023 21-1033)
T1 sequence (looked up): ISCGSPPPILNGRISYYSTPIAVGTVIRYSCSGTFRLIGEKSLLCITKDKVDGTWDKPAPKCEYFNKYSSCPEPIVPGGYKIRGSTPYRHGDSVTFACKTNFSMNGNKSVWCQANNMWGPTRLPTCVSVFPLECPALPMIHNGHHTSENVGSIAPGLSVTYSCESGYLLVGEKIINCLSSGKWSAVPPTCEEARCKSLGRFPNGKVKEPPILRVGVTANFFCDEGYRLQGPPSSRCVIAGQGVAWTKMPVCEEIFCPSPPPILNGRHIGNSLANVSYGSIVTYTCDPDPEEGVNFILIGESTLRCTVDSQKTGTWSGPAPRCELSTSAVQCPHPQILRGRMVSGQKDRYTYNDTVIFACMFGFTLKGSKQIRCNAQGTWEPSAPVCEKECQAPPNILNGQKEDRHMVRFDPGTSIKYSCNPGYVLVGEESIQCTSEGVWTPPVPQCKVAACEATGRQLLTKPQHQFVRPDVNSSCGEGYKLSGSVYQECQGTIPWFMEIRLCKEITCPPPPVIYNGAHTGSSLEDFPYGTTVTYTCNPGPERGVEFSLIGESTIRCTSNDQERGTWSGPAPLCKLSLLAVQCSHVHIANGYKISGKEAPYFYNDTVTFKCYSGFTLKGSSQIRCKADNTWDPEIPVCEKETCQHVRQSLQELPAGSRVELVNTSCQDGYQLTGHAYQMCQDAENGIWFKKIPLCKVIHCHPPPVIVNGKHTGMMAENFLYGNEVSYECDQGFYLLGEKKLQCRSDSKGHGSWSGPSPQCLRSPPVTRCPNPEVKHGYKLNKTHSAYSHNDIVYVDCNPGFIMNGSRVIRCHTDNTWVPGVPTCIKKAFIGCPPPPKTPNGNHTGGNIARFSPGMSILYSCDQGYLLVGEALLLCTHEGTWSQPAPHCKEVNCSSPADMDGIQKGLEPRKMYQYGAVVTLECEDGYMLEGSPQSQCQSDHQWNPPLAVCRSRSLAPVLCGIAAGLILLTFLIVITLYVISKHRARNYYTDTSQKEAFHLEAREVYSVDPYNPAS

T2: human CD21 protein (human, UniProt P20023 21-971, limits assumed)
T2 construct: the Biacore set-up is not described; also called huCD21; CR2
T2 sequence (looked up): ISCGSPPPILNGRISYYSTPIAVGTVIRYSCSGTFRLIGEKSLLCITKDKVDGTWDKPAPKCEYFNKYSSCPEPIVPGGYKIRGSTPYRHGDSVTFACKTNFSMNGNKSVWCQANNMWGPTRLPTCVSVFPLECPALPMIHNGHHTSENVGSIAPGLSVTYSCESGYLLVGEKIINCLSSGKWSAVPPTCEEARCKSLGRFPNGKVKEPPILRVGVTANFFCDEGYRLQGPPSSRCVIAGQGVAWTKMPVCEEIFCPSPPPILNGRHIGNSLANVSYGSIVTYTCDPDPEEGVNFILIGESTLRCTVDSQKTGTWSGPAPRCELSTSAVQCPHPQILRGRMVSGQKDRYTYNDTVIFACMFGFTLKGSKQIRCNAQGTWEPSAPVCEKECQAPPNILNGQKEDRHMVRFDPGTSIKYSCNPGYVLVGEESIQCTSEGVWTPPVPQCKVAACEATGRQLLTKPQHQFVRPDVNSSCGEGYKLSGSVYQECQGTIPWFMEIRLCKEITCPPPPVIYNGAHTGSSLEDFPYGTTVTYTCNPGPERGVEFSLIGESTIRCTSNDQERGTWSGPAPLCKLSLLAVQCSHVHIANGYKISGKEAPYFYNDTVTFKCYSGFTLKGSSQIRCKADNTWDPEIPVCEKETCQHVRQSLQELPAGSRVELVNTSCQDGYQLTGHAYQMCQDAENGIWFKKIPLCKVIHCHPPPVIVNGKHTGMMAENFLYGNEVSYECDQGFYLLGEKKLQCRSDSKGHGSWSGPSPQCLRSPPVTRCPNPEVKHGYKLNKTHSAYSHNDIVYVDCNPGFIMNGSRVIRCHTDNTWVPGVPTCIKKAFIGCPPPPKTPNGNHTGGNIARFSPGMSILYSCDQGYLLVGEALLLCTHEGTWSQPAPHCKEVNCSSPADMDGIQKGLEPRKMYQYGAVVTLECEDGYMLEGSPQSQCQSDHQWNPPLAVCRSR

B1: Ab423 (antibody, human IgG1, kappa, V domains shown)
VH: QVQLVQSGAEVKKPGSSVKVSCKASGGTFSSYAISWVRQAPGQGLEWMGRIIPILGIANYAQKFQGRVTITADKSTSTAYMELSSLRSEDTAVYYCAREDDISGYYQDWGQGTLVTVSS
VL: EIVMTQSPATLSVSPGERATLSCRAGQSINSYLAWYQQKPGQAPRLLIYDASTRATGIPARFSGSGSGTEFTLTISSLQSEDFAVYYCQQYEYWYTFGQGTKLEIKR
notes: IgG1
B2: Ab89 (antibody, human IgG1, kappa, V domains shown)
VH: QVQLVQSGAEVKKPGSSVKVSCKASGGTFSSYAISWVRQAPGQGLEWMGRIIPILGIANYAQKFQGRVTITADKSTSTAYMELSSLRSEDTAVYYCAREDDSSGYYQDWGQGTLVTVSS
VL: EIVMTQSPATLSVSPGERATLSCRAGQSINSHLAWYQQKPGQAPRLLIYDASTRATGIPARFSGSGSGTEFTLTISSLQSEDFAVYYCQQYEYWYTFGQGTKLEIKR
notes: IgG1; also called germlined derivative of Ab15
B3: Ab648 (antibody, human IgG1, kappa, V domains shown)
VH: QVQLVQSGAEVKKPGSSVKVSCKASGGELSTYAISWVRQAPGQGLEWMGRIIPILGIANYAQKFQGRVTITADKSTSTAYMELSSLRSEDTAVYYCAREEDISGYYQDWGQGTLVTVSS
VL: EIVMTQSPATLSVSPGERATLSCRAGQSISSYLAWYQQKPGQAPRLLIYDASSRATGIPARFSGSGSGTEFTLTISSLQSEDFAVYYCQQYEYWYSFGQGTKLEIKR
notes: IgG1
B4: Ab646 (antibody, human IgG1, kappa, V domains shown)
VH: QVQLVQSGAEVKKPGSSVKVSCKASGGELQTLAISWVRQAPGQGLEWMGRIIPILGIANYAQKFQGRVTITADKSTSTAYMELSSLRSEDTAVYYCAREEDISGYYQDWGQGTLVTVSS
VL: EIVMTQSPATLSVSPGERATLSCRAGQSISSYLAWYQQKPGQAPRLLIYDASSRATGIPARFSGSGSGTEFTLTISSLQSEDFAVYYCQQYEYWYSFGQGTKLEIKR
notes: IgG1

Legend:
[1] = molecular target: T1, human CD21 on Raji B cells or primary B …; experiment: cell-based or functional assay
human CD21 protein [2] = molecular target: T2, human CD21 protein; experiment: SPR (Biacore)
[3] = molecular target: cyno CD21 protein (cynomolgus monkey); experiment: SPR (Biacore), KD against Ab89
insulin = insulin (UniProt P01308); experiment: polyreactivity ELISA on coated insulin; third number of the cell
[4] = molecular target: cyno CD21 protein (cynomolgus monkey); experiment: SPR (Biacore)
[5] = molecular target: T1, human CD21 on Raji B cells or primary B …; experiment: cell-based or functional assay; remark: listed apart in the source
human CD21 protein [6] = molecular target: T2, human CD21 protein; experiment: SPR (Biacore); remark: listed apart in the source
human CD21 protein [7] = molecular target: T2, human CD21 protein; experiment: affinity KD; method not restated (Biacore elsewhere)
[8] = molecular target: cyno CD21 protein (cynomolgus monkey); experiment: as above
human CD21 protein [9] = molecular target: T2, human CD21 protein; experiment: SPR (Biacore), KD against Ab89
[10] = molecular target: cyno CD21 protein (cynomolgus monkey); experiment: SPR (Biacore); remark: listed apart in the source
[11] = molecular target: T1, human CD21 on Raji B cells or primary B …; experiment: Raji B cell binding
human CD21 protein [12] = molecular target: T2, human CD21 protein; experiment: SPR (Biacore); remark: listed apart in the source
[13] = molecular target: T1, human CD21 on Raji B cells or primary B …; experiment: competition with human C3d on primary B cells
[14] = molecular target: T1, human CD21 on Raji B cells or primary B …; experiment: competition with human C3d on Raji B cells
human CD21 protein [15] = molecular target: T2, human CD21 protein; experiment: affinity KD; method not restated (Biacore elsewhere); remark: listed apart in the source

Chain of insulin (P01308 25-54 limits assumed, chain 1 of 2): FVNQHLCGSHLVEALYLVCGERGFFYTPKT
Chain of insulin (P01308 90-110 limits assumed, chain 2 of 2): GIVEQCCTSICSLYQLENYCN

Row | Binder | pAKT inhibition, IC50, nM; Primary B cells [1] | pAKT inhibition, IC50, nM; Raji B cells [1] | Kd (human CD21 protein [2]) | fold affinity improvement over parental Ab89 [3] | insulin-binding score (ratio to buffer well) (insulin) | Kd [4] | pAKT inhibition, IC50, nM; Primary B cells [5] | pAKT inhibition, IC50, nM; Raji B cells [5] | Kd (human CD21 protein [6]) | Kd (human CD21 protein [7]) | Kd [8] | fold affinity improvement over parental Ab89 (human CD21 protein [9]) | Kd [10] | EC50 [11] | Kd (human CD21 protein [12]) | IC50 [13] | IC50 [14] | Kd (human CD21 protein [15])
1 | B1 | 7.94 nM | 14.9 nM | 0.0399 nM | 92 fold | 2 | 0.233 nM | 7.94 nM | 14.9 nM | 0.039 nM | 0.039 nM | 0.23 nM | 1780 fold | 0.23 nM | – | – | – | – | –
2 | B2 | – | – | – | – | – | 21.4 nM | – | – | – | – | – | – | – | 6.37 nM | 71.1 nM | 1.22 nM | 2.13 nM | –
3 | B3 | – | – | – | – | 1 | – | – | – | – | 0.01 nM | 0.15 nM | – | – | – | – | – | – | 0.01 nM
4 | B4 | – | – | – | – | 1 | – | – | – | – | 0.01 nM | 0.05 nM | – | – | – | – | – | – | 0.01 nM
